{
  "source": "patent US10874712B2",
  "about": "“Methods, compounds and compositions for modulating blood brain barrier integrity and re-myelination” (University Health Network, priority 2015, dated 2020)",
  "molecules": {"B1": {"name": "sRGMc: truncated form of RGMc with the GPI anchor sequence removed, released as a soluble protein (SEQ ID NOs: 1 and 3) (protein, listed as Homo sapiens)", "chain": "CKILRCNAEYVSSTLSLRGGGSSGALRGGGGGGRGGGVGSGGLCRALRSYALCTRRTARTCRGDLAFHSAVHGIEDLMIQHNCSRQGPTAPPPPRGPALPGAGSGLPAPDPCDYEGRFSRLHGRPPGFLHCASFGDPHVRSFHHHFHTCRVQGAWPLLDNDFLFVQATSSPMALGANATATRKLTIIFKNMQECIDQKVYQAEVDNLPVAFEDGSINGGDRPGGSSLSIQTANPGNHVEIQAAYIGTTIIIRQTAGQLSFSIKVAEDVAMAFSAEQDLQLCVGGCPPSQRLSRSERNRRGAITIDTARRLCKEGLPVEDAYFHSCVFDVLISGDPNFTVAAQAALEDARAFLPDLEKLH"}},
  "system": "MOG(35-55)-pulsed splenocytes of EAE-induced mice",
  "experiment": "MOG-specific cytokine expression, secretion and proliferation of splenocytes",
  "format": "in vivo, mouse",
  "method": "Mice were sacrificed on day 10 post-induction and single cells suspension of splenocytes were harvested as described above. Cells (1×10^6) were cultured in 10% FBS RPMI-1640 in the presence of 0 μg/mL, 30 μg/mL, or 100 μg/mL of MOG peptide for 15 h. Cells were then treated with GolgiStop (BD Biosciences) and incubated an additional 3 h and were subsequently stained.\nPlates were centrifuged at 1800 rpm for 5 min and the media was then harvested and stored at −80 C until analysis. Cytokine secretion of IL-17a, IL-6, TNF-α, and IFN-γ were assessed using the BD cytometric Bead Array (CBA) (BD Biosciences) according to the manufacturer's guidelines. Splenocyte proliferation was determined using CellTrace™ CFSE Cell Proliferation Kit for flow cytometry (Life Technologies) according to manufacturer's instructions. Briefly, 1×10^6 cells were suspended in warm PBS/0.1% BSA and stained with CFSE solution at a final concentration of 5 μM and incubated at 37° C. for 10 min. The staining was quenched using 5 volumes of ice-cold culture media, incubated for 5 min on ice, centrifuged at 700 rcf for 5 min, washed twice using culture medium, and re-suspended in 10% FBS complete RPMI-1640. Cells were then cultured in 0 μg/mL or 30 μg/mL of MOG(35-55) peptide for 72 h at 37° C., 5% CO2. […] Proliferation was analyzed by flow cytometry following staining in the presence of PI.",
  "data": [
    {"molecule": "B1", "values": [
      {"measurement": "cytokine secretion (IL17, IFN-γ, TNFα, IL6) of MOG-pulsed splenocytes", "setting": "pulsed with MOG for 96 h, ELISA, vs vehicle", "result": "does not alter"},
      {"measurement": "cytokine profile of splenocytes re-stimulated with MOG(35-55)", "setting": "re-stimulated for 18 hrs, vs control mice", "result": "no apparent effect"}
    ]}
  ]
}
